# In the supplement of paper PMC9112550, “Optimization of the antimicrobial peptide Bac7 by deep mutational scanning” (BMC Biology, 2022):
# System: Escherichia coli TOP10
# Experiment: shrunken log2 fold change of peptide-encoding DNA abundance (4.5 h post-induction vs induction); higher = less antimicrobial activity (less host growth inhibition)
# Details: time post-induction: 4.5 h; library: site-saturation at positions 5, 18, 19, 20
# 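Further: peptides expressed intracellularly from a pBAD plasmid library in pooled LB shake-flask culture, induced with 0.3% L-arabinose, DNA abundance read by NGS, three biological replicates, DESeq2 with apeglm shrinkage.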
row,Sequence,shrunken log2 fold change
1,RRIRTRPPRLPRPRPRPQLRPRP,-0.12
2,RRIRARPPRLPRPRPRPSFPPRP,-0.0947
3,RRIRNRPPRLPRPRPRPTEYPRP,-0.203
4,RRIRDRPPRLPRPRPRPTCIPRP,0.0607
5,RRIRSRPPRLPRPRPRPKFEPRP,0.12
6,RRIRGRPPRLPRPRPRPRGHPRP,1.11
7,RRIRKRPPRLPRPRPRPAASPRP,0.593
8,RRIRWRPPRLPRPRPRPFRTPRP,-0.16
9,RRIRPRPPRLPRPRPRPSVHPRP,-0.289
10,RRIRCRPPRLPRPRPRPPFQPRP,0.149
11,RRIRKRPPRLPRPRPRPADYPRP,-0.0391
12,RRIRKRPPRLPRPRPRPKCAPRP,0.283
13,RRIRGRPPRLPRPRPRPDCAPRP,1.53
14,RRIRWRPPRLPRPRPRPVFRPRP,-0.153
15,RRIRYRPPRLPRPRPRPVCRPRP,-0.0607
16,RRIRFRPPRLPRPRPRPQDDPRP,-0.493
17,RRIRLRPPRLPRPRPRPYESPRP,-0.957
18,RRIRQRPPRLPRPRPRPNTEPRP,-0.0119
19,RRIRMRPPRLPRPRPRPMDFPRP,-0.00448
20,RRIRFRPPRLPRPRPRPITIPRP,-0.195
21,RRIRERPPRLPRPRPRPNKKPRP,-0.187
22,RRIRFRPPRLPRPRPRPKVSPRP,0.00612
23,RRIRPRPPRLPRPRPRPEETPRP,-0.131
24,RRIRQRPPRLPRPRPRPRSSPRP,0.0377
25,RRIRDRPPRLPRPRPRPKQYPRP,-0.839

row,Sequence,shrunken log2 fold change
1,RRIRCRPPRLPRPRPRPLVWPRP,0.207
2,RRIRWRPPRLPRPRPRPSTAPRP,0.316
3,RRIRDRPPRLPRPRPRPTASPRP,0.381
4,RRIRARPPRLPRPRPRPMAAPRP,3.13
5,RRIRERPPRLPRPRPRPKWMPRP,-0.0884
6,RRIRKRPPRLPRPRPRPWWQPRP,0.0795
7,RRIRFRPPRLPRPRPRPNDDPRP,-0.755
8,RRIRGRPPRLPRPRPRPMNAPRP,0.493
9,RRIRYRPPRLPRPRPRPPTPPRP,0.104
10,RRIRCRPPRLPRPRPRPQMWPRP,0.0606
11,RRIRKRPPRLPRPRPRPCRHPRP,-0.00769
12,RRIRLRPPRLPRPRPRPIQWPRP,0.146
13,RRIRARPPRLPRPRPRPAGMPRP,0.432
14,RRIRERPPRLPRPRPRPYCAPRP,-0.533
15,RRIRTRPPRLPRPRPRPFWKPRP,0.0184
16,RRIRERPPRLPRPRPRPAMKPRP,-0.0226
17,RRIRFRPPRLPRPRPRPQSWPRP,-0.0287
18,RRIRFRPPRLPRPRPRPKQEPRP,0.246
19,RRIRNRPPRLPRPRPRPCMDPRP,-0.129
20,RRIRPRPPRLPRPRPRPLECPRP,-0.000998
21,RRIRFRPPRLPRPRPRPNIIPRP,-0.706
22,RRIRCRPPRLPRPRPRPPVIPRP,-0.0627
23,RRIRQRPPRLPRPRPRPETLPRP,-0.0597
24,RRIRLRPPRLPRPRPRPCKVPRP,0.00893
25,RRIRARPPRLPRPRPRPKDPPRP,0.211

row,Sequence,shrunken log2 fold change
1,RRIRCRPPRLPRPRPRPQFFPRP,-0.433
2,RRIRVRPPRLPRPRPRPNRYPRP,-0.4
3,RRIRDRPPRLPRPRPRPNTPPRP,-0.0665
4,RRIRDRPPRLPRPRPRPFEPPRP,-0.057
5,RRIRQRPPRLPRPRPRPICCPRP,0.259
6,RRIRRRPPRLPRPRPRPWYFPRP,-0.204
7,RRIRVRPPRLPRPRPRPSPKPRP,0.24
8,RRIRGRPPRLPRPRPRPLKAPRP,0.0177
9,RRIRHRPPRLPRPRPRPHCKPRP,-0.0178
10,RRIRARPPRLPRPRPRPLSDPRP,0.248
11,RRIRQRPPRLPRPRPRPPCSPRP,0.219
12,RRIRNRPPRLPRPRPRPQTYPRP,-0.375
13,RRIRLRPPRLPRPRPRPRHLPRP,-0.818
14,RRIRARPPRLPRPRPRPKISPRP,0.173
15,RRIRWRPPRLPRPRPRPSICPRP,-0.0271
16,RRIRMRPPRLPRPRPRPDKTPRP,0.00408
17,RRIRGRPPRLPRPRPRPAETPRP,-0.0775
18,RRIRNRPPRLPRPRPRPQLVPRP,-0.0147
19,RRIRSRPPRLPRPRPRPKMGPRP,-0.108
20,RRIRRRPPRLPRPRPRPTMFPRP,0.0275
21,RRIRHRPPRLPRPRPRPNCEPRP,-0.0369
22,RRIRARPPRLPRPRPRPNESPRP,0.102
23,RRIRRRPPRLPRPRPRPMGEPRP,0.0186
24,RRIRGRPPRLPRPRPRPQKSPRP,0.316
25,RRIRCRPPRLPRPRPRPDSWPRP,-0.115
